This note sets out measurements from US20260116951A1.

The target of experiment [1] is Recombinant Cyno CD200R, His-tagged (Creative Biomart CD200R1-3483C) (cynomolgus monkey). In words: SPR (BIAcore T200), CD200-Fc captured on anti-human Fc, cyno CD200R flowed, 25 C, 1:1 fit, mean of two runs. A general note: SPR reads the build-up and loss of mass on a sensor chip optically.
Experiment [2] has as its target Recombinant Human CD200R, His-tagged (Creative Biomart CD200R1-320H) (human) (UniProt Q8TD46). Nature of the experiment: SPR, CD200R flowed over immobilized CD200-Fc, 25 C, 1:1 fit, mean of 2 experiments with standard deviation.
The target is the same in experiment [3]. In words: SPR (BIAcore T200), CD200-Fc captured on anti-human Fc, CD200R flowed, 25 C, 1:1 fit, mean of two runs.
The target in experiment [4] is Recombinant Cyno CD200R, His-tagged (Creative Biomart CD200R1-3483C) (cynomolgus monkey). In words: SPR (BIAcore T200), CD200-Fc captured on anti-human Fc, cyno CD200R flowed, 25 C, 1:1 fit.
Experiment [5] shares this target. In words: SPR (BIAcore), DS-155 captured (0.5 ug/mL), CynoCD200R1 flowed at 1000 nM to 62.5 nM, 25 C, 1:1 Binding model, run 2.
Experiment [6] has the same target. In words: SPR, cyno CD200R1 flowed over immobilized CD200-Fc, 25 C, 1:1 fit.
Experiment [7] addresses Recombinant Human CD200R, His-tagged (Creative Biomart CD200R1-320H) (human) (UniProt Q8TD46). Nature of the experiment: SPR (BIAcore T200), CD200-Fc captured on anti-human Fc, CD200R flowed, 25 C, 1:1 fit.
For experiment [8] the target is unchanged. In words: SPR (BIAcore), DS-155 captured (0.5 ug/mL), HuCD200R1 flowed at 500 nM to 31.25 nM, 25 C, 1:1 Binding model, run 2.
Experiment [9] deals with Human CD200R, full length, on transduced U937 cells (U937-CD200R) (human) (UniProt Q8TD46). Nature of the experiment: cell-based or functional assay.
Chain of Human CD200R, full length, on transduced U937 cells (U937-CD200R) (human) (Q8TD46 25-348): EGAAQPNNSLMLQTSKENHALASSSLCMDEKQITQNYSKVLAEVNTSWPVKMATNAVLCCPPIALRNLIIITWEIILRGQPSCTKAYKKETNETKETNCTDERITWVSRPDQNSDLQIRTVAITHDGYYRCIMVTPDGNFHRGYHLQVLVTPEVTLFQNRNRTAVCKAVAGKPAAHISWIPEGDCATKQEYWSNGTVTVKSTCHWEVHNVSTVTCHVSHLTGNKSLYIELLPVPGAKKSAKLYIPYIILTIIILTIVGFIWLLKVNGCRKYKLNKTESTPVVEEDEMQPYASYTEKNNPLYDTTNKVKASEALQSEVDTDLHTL
Experiment [10] has as its target Recombinant Human CD200R, His-tagged (Creative Biomart CD200R1-320H) (human) (UniProt Q8TD46). In words: SPR, CD200R flowed over immobilized CD200-Fc, 25 C, 1:1 fit.
The target of experiment [11] is Recombinant Cyno CD200R, His-tagged (Creative Biomart CD200R1-3483C) (cynomolgus monkey). Nature of the experiment: SPR, cyno CD200R1 flowed over immobilized CD200-Fc, 25 C, 1:1 fit, mean of 2 experiments with standard deviation.
For experiment [12], the target named is Recombinant Human CD200R, His-tagged (Creative Biomart CD200R1-320H) (human) (UniProt Q8TD46). Nature of the experiment: SPR (BIAcore), DS-155 captured (0.5 ug/mL), HuCD200R1 flowed at 500 nM to 31.25 nM, 25 C, 1:1 Binding model, run 1.
Chain of Recombinant Human CD200R, His-tagged (Creative Biomart CD200R1-320H) (human) (Q8TD46 27-266 limits assumed): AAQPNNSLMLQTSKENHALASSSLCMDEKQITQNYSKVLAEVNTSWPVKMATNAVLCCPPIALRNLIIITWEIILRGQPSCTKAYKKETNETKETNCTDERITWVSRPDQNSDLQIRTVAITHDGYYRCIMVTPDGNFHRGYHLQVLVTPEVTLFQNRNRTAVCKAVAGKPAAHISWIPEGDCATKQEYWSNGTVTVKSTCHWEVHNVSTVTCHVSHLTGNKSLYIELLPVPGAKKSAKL
The target of experiment [13] is Recombinant Cyno CD200R, His-tagged (Creative Biomart CD200R1-3483C) (cynomolgus monkey). In words: SPR (BIAcore), DS-155 captured (0.5 ug/mL), CynoCD200R1 flowed at 1000 nM to 62.5 nM, 25 C, 1:1 Binding model, run 1.

As to “DS-155 (wild-type human CD200-Fc, IgG4 S228P Fc) (from UniProt P41217 31-232) (Fc fusion)”, the Kd (usually the concentration at which binding is half-saturated) in experiment [1] was 971 nM; in [2] it was 179 nM; in [3], 179 nM; in [5] it was 1050 nM; in experiment [8], 183 nM; in experiment [11] it was 971 nM. In addition, the Kd came out at 174 nM in experiment [12] and 888 nM in experiment [13]. Also, the koff (usually a measure of how fast the partners let go of each other) in experiment [1] turned out to be 0.0586 s⁻¹; in experiment [3], 0.0326 s⁻¹; in experiment [5], 0.0608 s⁻¹; in experiment [12], 0.0324 s⁻¹; in [13], 0.0564 s⁻¹. Moreover, the kon (in general, a measure of how fast the partners come together) in [1] worked out at 60600 M⁻¹ s⁻¹; in experiment [3], 183000 M⁻¹ s⁻¹; in [5], 57600 M⁻¹ s⁻¹; in [8] it was 180000 M⁻¹ s⁻¹; in experiment [12], 186000 M⁻¹ s⁻¹; in experiment [13], 63500 M⁻¹ s⁻¹. The t½ (commonly how long it takes for the measured level to halve) amounted to 11.8 s in experiment [4] and 21.1 s in experiment [7]. For the same substance, the T1/2 in experiment [6] came to 11.8 s; in experiment [10] it was 21.1 s. The substance further displayed an inhibition of LPS stimulated IL-6 release from U937-CD200R cells, IC50 in experiment [9] of 0.18 µg/mL.
